The numbers were not newly measured in US5747454A, “Chromogranin peptides” (Albert Einstein College of Medicine of Yeshiva University, priority 1995, dated 1998), which cites them from elsewhere.

For the series, the system named is primary cultures of parathyroid cells.

B1: Chromogranin A: large, acidic protein found in the secretory granules of endocrine and neuroendocrine tissues including the parathyroid (protein, UniProt P10645 19-457, looked up)
Chromogranin-A: LPVNSPMNKGDTEVMKCIVEVISDTLSKPSPMPVSQECFETLRGDERILSILRHQNLLKELQDLALQGAKERAHQQKKHSGFEDELSEVLENQSSQAELKEAVEEPSSKDVMEKREDSKEAEKSGEATDGARPQALPEPMQESKAEGNNQAPGEEEEEEEEATNTHPPASLPSQKYPGPQAEGDSEGLSQGLVDREKGLSAEPGWQAKREEEEEEEEEAEAGEEAVPEEEGPTVVLNPHPSLGYKEIRKGESRSEALAVDGAGKPGAEEAQDPEGKGEQEHSQQKEEEEEMAVVPQGLFRGGKSGELEQEEERLSKEWEDSKRWSKMDQLAKELTAEKRLEGQEEEEDNRDSSMKLSFRARAYGFRGPGPQLRRGWRPSSREDSLEAGLPLQVRGYPEEKKEEEGSANRRPEDQELESLSAIEAELEKVAHQLQALRRG
For B1, the “inhibition of parathyroid hormone secretion” value is on record as “inhibit parathyroid hormone secretion”.
